Consider two molecules from patent US20260176683A1 (RIJKSUNIVERSITEIT GRONINGEN, published 2026).

The target of assay [1] is His6-TEV-YaxB (full-length YaxB monomer) (Yersinia enterocolitica). The experiment in a line: 1:1 mixing of monomers, SEC, insertion into lipid bilayers.
The target in assay [2] is T1, C-reactive protein (UniProt P02741 19-224).
T1 construct: also called CRP
T1 sequence: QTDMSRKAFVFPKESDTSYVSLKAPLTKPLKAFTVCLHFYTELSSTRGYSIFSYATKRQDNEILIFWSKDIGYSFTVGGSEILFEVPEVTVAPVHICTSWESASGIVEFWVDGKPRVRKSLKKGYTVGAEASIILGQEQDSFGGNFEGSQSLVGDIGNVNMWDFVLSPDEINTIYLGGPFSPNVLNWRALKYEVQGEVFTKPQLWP
The experiment in a line: single-nanopore electrophysiology, CRP added to cis.

B1: His6-TEV-YaxA (full-length YaxA monomer) (other)
chain: MSYYHHHHHHDYDIPTTENLTRSSENLYFQSGGTQTQLAIDNVLASAESTIQLNELPKVVLDFITGEQTSVARSGGIFTKEDLINLKLYVRKGLSLPTRQDEVEAYLGYKKIDVAGLEPKDIKLLFDEIHNHALNWNDVEQAVLQQSLDLDIAAKNIISTGNEIINLINQMPITLRVKTLLGDITDKQLENITYESADHEVASALKDILDDMKGDINRHQTTTENVRKKVSDYRITLTGGELSSGDKVNGLEPQVKTKYDLMEKSNMRKSIKELDEKIKEKRQRIEQLKKDYDKFVGLSFTGAIGGIIAMAITGGIFGAKAENARKEKNALISEVAELESKVSSQRALQTALEALSLSFSDIGIRMVDAESALNHLDFMWLSVLNQITESQIQFAMINNALRLTSFVNKFQQVITPWQSVGDSARQLVDIFDEAIKEYKKVYG
As to B1, the binding result in assay [1] is listed as “binds”.

B2: YaxAΔ40BN-strepII-70aa-flex nanopore (other)
chain 1: […]
chain 2: MSYYHHHHHHDYDIPTTENLYFQGWSHPQFEKGSSGSTSNASAGTGSATGSNSTAGASSGNSAGTGTSSGSTGSANSSAGTGSGSATASAGNSGTSTAGNSTAEISTFPHSGLSYPDINFKIFSQGVKNISHLAQFKTTGVEVLQEKALRVSLYSQRLDVIVRESLSSLQVKLENTLALTYFTTLEEIDEALISQDIDEESKSEMRKERINIIKNLSNDITQLKQLFIEKTELLDKSSSDLHNVVIIEGTDKVLQAEQLRQKQLTEDIATKELERKEIEKKRDKIIEALDVIREHNLVDAFKDLIPTGENLSELDLAKPEIELLKQSLEITKKLLGQFSEGLKYIDLTDARKKLDNQIDTASTRLTELNRQLEQSEKLIAGVNAIIKIDQEKSAVVVEAEKLSRAWHIFIHEITALQGTSLNEVELSKPLIKQQIYLESLIKQLI
As for B2, in assay [2], the binding result was “no binding (tested: 20 nM CRP)”.
